± gives the uncertainty stated by the source.
Assay: amyloid nucleation score (Sup35N fusion, yeast selection) (log enrichment); library NNK1; higher = more nucleation; inactive = no reads after selection
Procedure, shortened: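 Plasmid inserts were Illumina-sequenced at input and output from psi-negative yeast expressing Sup35N fused to peptides of 20 random codons. The yeast were induced with 100 μM copper sulfate for 24 hours and grown 7 days at 30°C on medium lacking adenine and uracil, and sequences with under 100 input reads were excluded. Nucleation score is the DiMSum log enrichment of output over input reads, centred on the mode score of non-aggregating sequences.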
YYIEVLILCWACQNALSRAS gave an amyloid nucleation score of 0.5 ± 0.9. In the case of YYKYKLLLIKLVLGGAGRPV, the amyloid nucleation score is reported as -0.054 ± 0.56. YYPGSGFH gave an amyloid nucleation score of -0.531 ± 0.65. With YYSGGFIMVVHLWSVELRFR the amyloid nucleation score was 0.23 ± 0.9. In the case of YYTVLLRS, the amyloid nucleation score is reported as -0.453 ± 0.52. YYTYDGVGSLICTCRFTRVV gave an amyloid nucleation score of -0.356 ± 0.49. In the case of YYVDV, the amyloid nucleation score is reported as -0.034 ± 0.88. Work on YYVFITIYVVSLVCNLSCYF yielded an amyloid nucleation score of -0.573 ± 0.74. For YYVGSYTL, the amyloid nucleation score was “inactive”. In the case of YYVLFNAFQLIPLGWGNYS, the amyloid nucleation score is reported as “inactive”. YYVVVFVANAVFPQYPDPRN showed an amyloid nucleation score of 7.21 ± 0.055. In the case of YYWCAHPSCYPSVY, the amyloid nucleation score is reported as 0.878 ± 0.58. YYYGKVA showed an amyloid nucleation score of 0.227 ± 0.57.

Reference: the supplement of paper PMC12042874
